Measured values as given in doi:10.1101/2020.12.02.407882.
Blank lines part the entries; values can stand above or below the substance they belong to.

Legend:
[1] = biological target: 1G4 TCR carrying βA291 (TCRαβ with HA-tagged β Y291A); assay: co-IP
[2] = biological target: QM-α TCR (1G4 variant with mutations in αCDR2, βCDR2 and βCDR3; TCRαβ with HA-tagged β); assay: pull-down
[3] = biological target: 1G4 TCR, wild type (TCRαβ with HA-tagged β); assay: co-IP

reduction of recovery (γ/βT) against 1G4-WT [1]: 40%
Substance: CD3γ, endogenous in J76 Jurkat cells (from UniProt P09693 23-182) (natural protein)

reduction of recovery (δ/βT) against 1G4-WT [1]: 10%
Substance: CD3δ, endogenous in J76 Jurkat cells (from UniProt P04234 22-171) (natural protein)

ε/βT ratio against 1G4-WT (ratio, 1G4-WT = 1) [1]: 0.5
Substance: CD3ε, endogenous in J76 Jurkat cells (from UniProt P07766 23-207) (natural protein)

reduction of ζ/β2 ratio, (9V-A2)4-His-bound against unliganded QM-α [2]: 40%
ζ/β2 ratio against 1G4-WT (ratio, 1G4-WT = 1) [1]: 0.2
Substance: CD3ζ (ζζ dimer), endogenous in J76 Jurkat cells (from UniProt P20963-1 22-164) (natural protein)

ζ/β2 ratio against ζWT (ratio, ζWT = 1) [3]: 0.05
Substance: CD3ζ carrying ζA38 (I38A), expressed in J76-1G4WT-ζKO (from UniProt P20963-1 22-164) (natural protein)

ζ/β2 ratio against ζWT (ratio, ζWT = 1) [3]: 0.25
Substance: CD3ζ carrying ζA41 (I41A), expressed in J76-1G4WT-ζKO (from UniProt P20963-1 22-164) (natural protein)
